Test results as given in paper PMC12313933 (Nature Communications, 2025).

B1: MIF(Y100H) variant (enzyme, human)
chain: MPMFIVNTNVPRASVPDGFLSELTQQLAQATGKPPQYIAVHVVPDQLMAFGGSSEPCALCSLHSIGKIGGAQNRSYSKLLCGLLAERLRISPDRVYINYHDMNAANVGWNNSTFA
B2: MIF(S61H/Y100H) variant (enzyme, human)
chain: MPMFIVNTNVPRASVPDGFLSELTQQLAQATGKPPQYIAVHVVPDQLMAFGGSSEPCALCHLHSIGKIGGAQNRSYSKLLCGLLAERLRISPDRVYINYHDMNAANVGWNNSTFA

Experiments:
[1] = biological target: the molecule itself; test: dynamic light scattering
[2] = biological target: the molecule itself; test: crystal structure

| Protein | stoichiometry N [1] | binding result [2] |
| --- | --- | --- |
| B1 | 3 |  |
| B2 |  | binds |
